Test results: US20240018502A1
Substitutions are numbered along the chain they refer to. Names and notes keep the numbering of the source.

B1: MTSP-1 ins97aA/F97G/T98L/C122S/Q175M/Q192A/D217I/K224R (enzyme)
chain: VVGGTDADEGEWPWQVSLHALGQGHICGASLISPNWLVSAAHCYIDDRGFRYSDPTQWTAFLGLHDQSQRSAPGVQERRLKRIISHPFFNDGALFDYDIALLELEKPAEYSSMVRPISLPDASHVFPAGKAIWVTGWGHTQYGGTGALILQKGEIRVINQTTCENLLPQMITPRMMCVGFLSGGVDSCAGDSGGPLSSVEADGRIFQAGVVSWGIGCAQRNRPGVYTRLPLFRDWIKENTGV
B2: MTSP-1 I41T/D60bH/ins97aV/F97D/T98P/F99L/C122S/Q192G/D217I (enzyme)
chain: B1 chain with I26T, D47H, G92D, A93V, L94P, F95L, M170Q, A189G, R222K
B3: MTSP-1 ins97aY/F97G/T98V/C122S/Q175M/Q192S/D217V (enzyme)
chain: B1 chain with A93Y, L94V, A189S, I215V, R222K
B4: MTSP-1 ins97aY/F97H/F99L/C122S/Q175M/Q192A/D217V (enzyme)
chain: B1 chain with G92H, A93Y, L94T, F95L, I215V, R222K
B5: MTSP-1 Q38F/I41A/D60bT/F60eG/Y60gW/ins97aE/F97T/T98G/F99L/C122S/Q175L/Q192E (enzyme)
chain: VVGGTDADEGEWPWQVSLHALGFGHACGASLISPNWLVSAAHCYIDTRGGRWSDPTQWTAFLGLHDQSQRSAPGVQERRLKRIISHPFFNDTEGLDYDIALLELEKPAEYSSMVRPISLPDASHVFPAGKAIWVTGWGHTQYGGTGALILQKGEIRVINQTTCENLLPQLITPRMMCVGFLSGGVDSCEGDSGGPLSSVEADGRIFQAGVVSWGDGCAQRNKPGVYTRLPLFRDWIKENTGV
B6: MTSP-1 Q38H/I41S/D60bT/F60eS/Y60gW/ins97aV/F97D/T98P/F99L/C122S/G151H/Q175L/Q192V (enzyme)
chain: B5 chain with F23H, A26S, G50S, T92D, E93V, G94P, G146H, E189V
B7: MTSP-1 Q38K/I41T/ins97aE/F97T/T98G/F99L/C122S/Q175L/Q192A (enzyme)
chain: B5 chain with F23K, A26T, T47D, G50F, W52Y, E189A
B8: MTSP-1 Q38H/I41A/D60bV/F60eH/ins97aE/F97T/T98G/F99L/C122S/Q175L/Q192D (enzyme)
chain: B5 chain with F23H, T47V, G50H, W52Y, E189D
B9: MTSP-1 Q38L/H40P/I41T/D60bV/F60eH/Y60gL/ins97aE/F97T/T98G/F99L/C122S/Q175L/Q192A (enzyme)
chain: B5 chain with F23L, H25P, A26T, T47V, G50H, W52L, E189A
B10: MTSP-1 Q38E/I41S/D60bV/F60eK/Y60gW/ins97aE/F97T/T98G/F99L/C122S/G151H/Q175L/Q192D (enzyme)
chain: B5 chain with F23E, A26S, T47V, G50K, G146H, E189D
B11: MTSP-1 Q38R/I41V/D60bV/F60eV/Y60gF/ins97aE/F97T/T98G/F99L/C122S/Q175L/Q192G (enzyme)
chain: B5 chain with F23R, A26V, T47V, G50V, W52F, E189G
B12: MTSP-1 Q38H/I41S/D60bT/F60eR/ins97aE/F97T/T98G/F99L/C122S/Q175L/Q192E (enzyme)
chain: B5 chain with F23H, A26S, G50R, W52Y
B13: MTSP-1 Q38H/I41S/D60bT/F60eS/ins97aV/F97D/T98P/F99L/C122S/G151H/Q175L/Q192V (enzyme)
chain: B5 chain with F23H, A26S, G50S, W52Y, T92D, E93V, G94P, G146H, E189V
B14: MTSP-1 Q38H/I41A/D60bY/F60eT/ins97aE/F97T/T98G/F99L/C122S/Q175L/Q192D (enzyme)
chain: B5 chain with F23H, T47Y, G50T, W52Y, E189D
B15: MTSP-1 Q38Y/I41S/D60bR/F60eE/Y60gF/ins97aE/F97T/T98G/F99L/C122S/Q175L/Q192V (enzyme)
chain: B5 chain with F23Y, A26S, T47R, G50E, W52F, E189V
B16: MTSP-1 Q38H/I41A/D60bT/F60eK/Y60gW/ins97aE/F97T/T98G/F99L/C122S/G151H/Q175L/Q192D (enzyme)
chain: B5 chain with F23H, G50K, G146H, E189D
B17: MTSP-1 Q38H/I41S/D60bA/F60eV/ins97aE/F97T/T98G/F99L/C122S/Q175L/Q192V (enzyme)
chain: B5 chain with F23H, A26S, T47A, G50V, W52Y, E189V
B18: MTSP-1 Q38H/I41A/D60bT/F60eK/ins97aE/F97T/T98G/F99L/C122S/Q175L/Q192E (enzyme)
chain: B5 chain with F23H, G50K, W52Y
B19: MTSP-1 Q38E/I41V/D60bF/F60eK/Y60gF/F97T/ins97aE/T98G/F99L/C122S/Q175L/Q192G (enzyme)
chain: B5 chain with F23E, A26V, T47F, G50K, W52F, E189G
B20: MTSP-1 Q38H/I41S/D60bT/F60eS/Y60gW/ins97aV/F97D/T98P/F99L/C122S/G151N/Q175L/Q192D (enzyme)
chain: B5 chain with F23H, A26S, G50S, T92D, E93V, G94P, G146N, E189D
B21: MTSP-1 Q38L/I41T/D60bV/F60eH/Y60gL/ins97aE/F97T/T98G/F99L/C122S/Q175L/Q192S (enzyme)
chain: B5 chain with F23L, A26T, T47V, G50H, W52L, E189S
B22: MTSP-1 Q38H/I41S/D60bT/F60eT/Y60gW/ins97aV/F97D/T98P/F99L/C122S/G151H/Q175L/Q192V (enzyme)
chain: B5 chain with F23H, A26S, G50T, T92D, E93V, G94P, G146H, E189V
B23: MTSP-1 Q38H/I41A/D60bV/F60eI/Y60gW/ins97aE/F97T/T98G/F99L/C122S/G151H/Q175L/Q192D (enzyme)
chain: B5 chain with F23H, T47V, G50I, G146H, E189D
B24: MTSP-1 Q38H/I41A/D60bV/F60eA/Y60gW/F97T/ins97aE/T98G/F99L/C122S/Q175L/Q192V (enzyme)
chain: B5 chain with F23H, T47V, G50A, E189V
B25: MTSP-1 Q38H/I41A/D60bT/F60eK/Y60gW/F97T/ins97aE/T98G/F99L/C122S/Q175L/Q192A (enzyme)
chain: B5 chain with F23H, G50K, E189A

Biological target: plasma purified human complement protein C3 (human) (UniProt P01024)
Assay: cell-based or functional assay

Sequence of plasma purified human complement protein C3 (human) (P01024 23-667, chain 1 of 2): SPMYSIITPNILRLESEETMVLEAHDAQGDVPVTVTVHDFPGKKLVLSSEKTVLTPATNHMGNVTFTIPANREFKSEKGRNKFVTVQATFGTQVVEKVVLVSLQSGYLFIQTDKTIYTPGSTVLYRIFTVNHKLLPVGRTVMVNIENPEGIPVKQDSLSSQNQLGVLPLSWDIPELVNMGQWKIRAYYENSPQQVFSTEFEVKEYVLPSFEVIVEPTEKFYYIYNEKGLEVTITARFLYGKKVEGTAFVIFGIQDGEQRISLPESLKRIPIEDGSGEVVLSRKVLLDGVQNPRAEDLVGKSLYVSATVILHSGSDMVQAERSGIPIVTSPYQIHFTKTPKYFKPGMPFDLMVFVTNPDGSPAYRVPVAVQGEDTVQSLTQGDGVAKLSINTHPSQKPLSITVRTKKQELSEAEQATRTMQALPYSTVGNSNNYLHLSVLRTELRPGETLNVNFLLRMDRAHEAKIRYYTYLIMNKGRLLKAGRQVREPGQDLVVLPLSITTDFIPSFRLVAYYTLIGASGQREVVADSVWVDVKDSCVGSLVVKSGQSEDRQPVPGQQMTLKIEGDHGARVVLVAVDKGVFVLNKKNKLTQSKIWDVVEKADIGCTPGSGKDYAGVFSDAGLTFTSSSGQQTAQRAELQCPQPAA
Sequence of plasma purified human complement protein C3 (human) (P01024 672-1663, chain 2 of 2): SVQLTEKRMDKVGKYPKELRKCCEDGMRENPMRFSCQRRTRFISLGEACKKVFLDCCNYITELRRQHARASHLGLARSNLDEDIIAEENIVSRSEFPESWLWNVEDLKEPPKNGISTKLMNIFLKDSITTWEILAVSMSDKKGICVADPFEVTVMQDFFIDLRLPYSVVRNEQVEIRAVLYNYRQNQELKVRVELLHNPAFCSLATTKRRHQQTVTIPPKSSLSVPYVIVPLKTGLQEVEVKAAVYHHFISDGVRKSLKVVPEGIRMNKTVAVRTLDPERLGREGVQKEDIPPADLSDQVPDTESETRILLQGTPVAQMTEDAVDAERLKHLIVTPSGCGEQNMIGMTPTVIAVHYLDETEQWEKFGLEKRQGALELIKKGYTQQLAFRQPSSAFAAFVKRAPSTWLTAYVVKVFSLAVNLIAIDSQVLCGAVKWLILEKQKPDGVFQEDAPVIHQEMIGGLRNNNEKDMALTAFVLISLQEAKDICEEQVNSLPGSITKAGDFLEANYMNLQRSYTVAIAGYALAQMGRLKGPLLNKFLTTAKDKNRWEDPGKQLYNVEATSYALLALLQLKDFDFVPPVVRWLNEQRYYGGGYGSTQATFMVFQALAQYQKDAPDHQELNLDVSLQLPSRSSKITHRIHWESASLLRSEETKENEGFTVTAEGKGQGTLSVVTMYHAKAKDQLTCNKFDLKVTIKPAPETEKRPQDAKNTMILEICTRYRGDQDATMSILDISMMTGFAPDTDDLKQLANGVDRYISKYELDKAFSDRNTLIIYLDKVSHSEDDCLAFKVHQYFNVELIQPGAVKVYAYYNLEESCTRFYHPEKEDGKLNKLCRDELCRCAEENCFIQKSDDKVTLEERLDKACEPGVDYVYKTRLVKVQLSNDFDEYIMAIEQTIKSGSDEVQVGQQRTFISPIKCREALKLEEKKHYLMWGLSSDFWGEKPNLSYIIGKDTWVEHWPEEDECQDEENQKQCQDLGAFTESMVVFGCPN

| EC50 of hC3 cleavage | Binder |
| --- | --- |
| 0.866 nM | B1 |
| 4.52 nM | B2 |
| 2.42 nM | B3 |
| 5.72 nM | B4 |
| 1.25 nM | B5 |
| 7.43 nM | B6 |
| 37.8 nM | B7 |
| 5.31 nM | B8 |
| 6.47 nM | B9 |
| 22.9 nM | B10 |
| 18.3 nM | B11 |
| 15.4 nM | B12 |
| 20.2 nM | B13 |
| 4.77 nM | B14 |
| 25 nM | B15 |
| 10.6 nM | B16 |
| 10.9 nM | B17 |
| 14.6 nM | B18 |
| 14.2 nM | B19 |
| 15.4 nM | B20 |
| 13.1 nM | B21 |
| 5.52 nM | B22 |
| 6.42 nM | B23 |
| 1.57 nM | B24 |
| 2.71 nM | B25 |
